Test results from US20220017636A1 (Amgen, published 2022).

Tests used:
Experiment in all cases: flow cytometry, peptide-loaded T2 cells;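 note: binding of single-chain Fv antibody constructs, raised in XenoMouse, to peptide-pulsed T2 cells measured by flow cytometry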
[1] = target: T1, STXBP5 peptide complexed with HLA-A*02:01 on T2 cells (human)
T1 construct: whole, on cells
Experimental: (§1) Binding of pMAGE-HLA scFv constructs, generated from the XenoMouse, on peptide loaded T2 cells was evaluated by flow cytometry.

[2] = target: T2, COX14 peptide complexed with HLA-A*02:01 on T2 cells (human)
T2 construct: whole, on cells
Experimental: as §1

[3] = target: T3, KEA peptide complexed with HLA-A*02:01 on T2 cells (human)
T3 construct: whole, on cells
Experimental: as §1

[4] = target: T4, MB peptide complexed with HLA-A*02:01 on T2 cells (human)
T4 construct: whole, on cells
Experimental: as §1

[5] = target: T5, MAGEB2 peptide … (SEQ ID NO: 1) complexed with HLA-A*02:01 on the cell surface (human)
T5 construct: whole, on cells; also called pMAGE-HLA; MAGEB2 pMHC
Experimental: as §1

[6] = target: T6, CNDP2 peptide complexed with HLA-A*02:01 on T2 cells (human)
T6 construct: whole, on cells; also called CNPD2
Experimental: as §1

[7] = target: T7, MYOF peptide complexed with HLA-A*02:01 on T2 cells (human)
T7 construct: whole, on cells
Experimental: as §1

[8] = target: T8, ADF peptide complexed with HLA-A*02:01 on T2 cells (human)
T8 construct: whole, on cells
Experimental: as §1

[9] = target: T9, SLK peptide complexed with HLA-A*02:01 on T2 cells (human)
T9 construct: whole, on cells
Experimental: as §1

[10] = target: T10, DPYSL4 peptide complexed with HLA-A*02:01 on T2 cells (human)
T10 construct: whole, on cells
Experimental: as §1

Signal/background [1]	Signal/background [2]	Signal/background [3]	Signal/background [4]	Signal/background [5]	Signal/background [6]	Signal/background [7]	Signal/background [8]	Signal/background [9]	Signal/background [10]	Binder
1	1.1	1	1.1	176	1	1.1	1.1	1.3	1.1	18089-D12 (scFv, scFv in bacterial lysate, detected with anti-Flag M2) scFv: EVQLLESGGGVVQPGRSLRLSCAASGFTFSTYGMHWVRQAPGKGLEWVAVISYDGSNKYYADSVKGRFTISRDDSKNTLYLQMNSLRAEDTAVYYCARGQLLTGYWGQGTLVTVSSGGGGSGGGGSGGGGSELVMTQSPSSLSASVGDRVTITCRASQGISNYLAWYQQKPGKVPKLLIYAASTLQSGVPSRFSGSGSGTDFTLTISSLQPEDVATYYCQKYNSAPFTFGPGTKVEIK
1	1	0.9	1	560	1	1	0.9	1	1	18182-B5 (scFv, scFv in bacterial lysate, detected with anti-Flag M2) scFv: EVQLLESGGGLVQPGGSLRLSCAASGFTFSSHAMSWVRQAPGKGLEWVSAISGSGGGTYYADSVKGRFTISRDNSKNTLYLQMNSLRAEDTAVYYCATGKGVHLGFDYWGQGTLVTVSSGGGGSGGGGSGGGGSELVLTQPPSVSVAPGQTARITCGGNNIGSKSVHWYQQKPGQAPVLVVYDDNDRPSGIPERFSGSNFGNTATLIISRVEAGDEADYYCQVWDSSSDHVVFGGGTKLTVL
1	0.8	0.9	0.9	193	0.9	0.9	1	1	0.9	18182-E1 (scFv, scFv in bacterial lysate, detected with anti-Flag M2) scFv: EVQLLESGGGLVQPGGSLRLSCAASGFTFSSHAMSWVRQAPGKGLEWVSAISGSGGGTYNADSVKGRFTISRDNSKNTLYLQMNSLRAEDTAAYYCVTGKGVHLGFDYWGQGTLVTVSSGGGGSGGGGSGGGGSELVLTQPPSVSVAPGQTARITCGGNNIGSKSVHWYQQKPGQAPVMVVYDDNDRPSGIPERFSGSNSGNTATLTISRVEAGDEADYYCQVWDSSSDHVVFGGGTKLTVL
1	0.9	0.9	1.1	289	0.9	1	1	1.1	1	18182-G8 (scFv, scFv in bacterial lysate, detected with anti-Flag M2) scFv: EVQLLESGGGLVKPGGSLRLSCAASGFTFSSYAMNWVRQAPGKGLEWVSAISGSGGGTYYADSGKGRFTISRDNSKNTLYLQMNSLRAEDTAVYYCATGKGVHLNFDYWGQGTLVTVSSGGGGSGGGGSGGGGSELVLTQPPSVSVAPGQTARITCGGNNIGSKSVHWYQQKPGQAPVMVVYDDNDRPSGIPERFSGSNSGNTATLTISRVEAGDEADYYCQVWDSSSDHVVFGGGTKLTVL
0.9	0.9	0.9	1	320	1	1	1	1	1.1	18182-G2 (scFv, scFv in bacterial lysate, detected with anti-Flag M2) scFv: EVQLLESGGGLVQPGGSLRLSCAASGFTFSSHAMSWVRQAPGKGLEWVSAISGSGGGTYNADSVKGRFTISRDNSKNTLYLQMNSLRAEDTAAYYCVTGKGVHLGFDYWGQGTLVTVSSGGGGSGGGGSGGGGSELVLTQPPSVSVAPGQTARITCGGNNIGSKSVHWYQQKPGQAPVMVVYDDNDRPSGIPERFSGSNSGNTATLTISRVEAGDEADYYCQVWDSSSDHVIFGGGTKLTVL
0.9	1	0.9	0.8	208	0.8	0.8	1	0.9	1	18182-B12 (scFv, scFv in bacterial lysate, detected with anti-Flag M2) scFv: EVQLLESGGGLVQPGGSLRLSCAASGFTFSSYAMSWVRQAPGKGLEWVSAISGSGGGTYYADSVKGRFTISRDNSKNTLYLQMSSLRAEDTAVYYCATGKGVHLGFDYWGQGTLVTVSSGGGGSGGGGSGGGGSELVLTQPPSVSVAPGQTARITCGGNNIGSKSVHWHQQKPGQAPVLVVYDDNDRPSGIPERFSGSNSGNTATLTISRVEAGDEADYYCQVWDYSSDHVVFGGGTKLTVL
0.9	1	0.9	0.9	431	1	1	1	1	0.9	18182-E6 (scFv, scFv in bacterial lysate, detected with anti-Flag M2) scFv: EVQLLESGGGLVQPGGSLRLSCAASGFTFSSYAMSWVRQAPGKGLEWVSAISGSGGGTYYADSVKGRFTISRDNSKNTLYLQMNSLRAEDTAVYYCATGKGVHLNFDYWGQGTLVTVSSGGGGSGGGGSGGGGSELVLTQPSSVSVAPGQTARITCGGNNIGSKSVHWYQQKPGQAPVLVVYDDNDRPSGIPERFSGSNFGNTATLIISRVAAGDEADYYCQVWDSSSDHVVFGGGTKLTVL
0.8	0.9	0.9	1	202	0.8	1	1.1	1	1	18182-A4 (scFv, scFv in bacterial lysate, detected with anti-Flag M2) scFv: EVQLLESGGGVVQPGRSLRLSCAASGFTFSSYAMTWVRQAPGQGLEWVSSISGSGGGTYYAASVKGRFTISRDNSKNTLYLQMNSLRAEDTAVYYCATGKGVHLGFDYWGQGTLVTVSSGGGGSGGGGSGGGGSELVLTQPPSVSVAPGQTARITCGGNNIGSKSVHWYQQKPGQAPVLVVYDDNDRPSGIPERFSGSNFGNTATLIISRVAAGDEADYYCQVWDSSSDHVVFGGGTKLTVL
1	1	1	1	365	1	1	1	1	1	18182-G6 (scFv, scFv in bacterial lysate, detected with anti-Flag M2) scFv: EVQLLESGGGLVQPGGSLRLSCAASGFTFSSYAMSWVRQAPGKGLEWVSAISGSGGGTYYADSVKGRFTISRDNSKNTLYLQMNSLRAEDTAAYYCVTGKGVHLGFDYWGQGTLVTVSSGGGGSGGGGSGGGGSELVLTQPPSVSVAPGQTARITCGGNNIGSKSVHWHQQKPGQSPVLVIYDDNDRPSGIPERFSGFNSGNTATLTISRVEAGDEADYYCQVWDSSSDHVVFGGGTKLTVL
1.1	0.9	1	1	481	1	1.1	1	1.2	1.1	18182-H9 (scFv, scFv in bacterial lysate, detected with anti-Flag M2) scFv: EVQLLESGGGLVQPGGSLRLSCAASGFTFSSHAMSWVRQAPGKGLEWVSAISGSGGGTYYADSVKARFTISRDNSKNTLYLQMNSLRAEDTAVYYCATGKGVHLGFDYWGQGTLVTVSSGGGGSGGGGSGGGGSELVLTQPPSVSVAPGQTARITCGGNNIGSKSVHWHQQKPGQAPVLVVYDDNDRPSGIPERFSGSNSGNTATLTISRVEAGDEADFYCQVWDSSSDHVVFGGGTKLTVL
0.8	0.9	0.9	0.9	205	0.8	0.9	1	1	1	18182-E5 (scFv, scFv in bacterial lysate, detected with anti-Flag M2) scFv: EVQLLESGGGLVQPGGSLRLSCAASGFTFSSYAMSWVRQAPGKGLEWVSTISGSGGGTYYADSVKGRFTISRDNSKNTLYLQMNSLRAEDTAVYYCATGKGVHLGFDYWGQGTLVTVSSGGGGSGGGGSGGGGSELVLTQPPSVSVAPGQTARITCGGNNIGSKSVHWHQQKPGQAPVLVVYDDNDRPSGIPERFSGSNSGNTATLTISRVEAGDEADYYCQVWDYSSDHVVFGGGTKLTVL
0.8	0.9	0.8	0.9	273	0.8	0.9	0.9	1	0.9	18182-E10 (scFv, scFv in bacterial lysate, detected with anti-Flag M2) scFv: EVQLLESGGGLVQPGGSLRLSCAASGFTFSSHAMSWVRQAPGQGLEWVSSISGSGGGTYYAASVKGRFTISRDNSKNTLYLQMNSLRAEDTAVYYCATGKGVHLNFDYWGQGTLVTVSSGGGGSGGGGSGGGGSELALTQPASASVAPGQTARITCGGNNIGSKSVHWHQQKPGQAPVLVVYDDNDRPSGIPERFSGSNSGNTATLTISRVEAGDEADFYCQVWDSSSDHVVFGGGTKLTVL
